Data on one molecule can be found in article PMC10545747, “Development of cyclopeptide inhibitors of cGAS targeting protein-DNA interaction and phase separation”.

The target of one data set is hcGAS-FL (Homo sapiens, UniProt Q8N884 1-522). The data set is described as follows: fluorescence polarization; 300 nM protein, 40 nM DNA; XQ2 competes with IC50 19.2 ± 6.7 uM (inhibitor value, not DNA affinity); FP: 20 mM HEPES pH 7.5, 125 mM KCl, 10 mM MgCl2; 300 nM cGAS, 40 nM FAM-ISD; temperature not stated. MST conditions not given in the material. The following applies: protein: recombinant; tags: 6xHis-SUMO removed by ULP1; label: 5'-FAM on sense strand; blunt. (In general: Polarisation of emitted light reports the rotation of a fluorescent probe.)
Chain of hcGAS-FL (Q8N884 whole entry): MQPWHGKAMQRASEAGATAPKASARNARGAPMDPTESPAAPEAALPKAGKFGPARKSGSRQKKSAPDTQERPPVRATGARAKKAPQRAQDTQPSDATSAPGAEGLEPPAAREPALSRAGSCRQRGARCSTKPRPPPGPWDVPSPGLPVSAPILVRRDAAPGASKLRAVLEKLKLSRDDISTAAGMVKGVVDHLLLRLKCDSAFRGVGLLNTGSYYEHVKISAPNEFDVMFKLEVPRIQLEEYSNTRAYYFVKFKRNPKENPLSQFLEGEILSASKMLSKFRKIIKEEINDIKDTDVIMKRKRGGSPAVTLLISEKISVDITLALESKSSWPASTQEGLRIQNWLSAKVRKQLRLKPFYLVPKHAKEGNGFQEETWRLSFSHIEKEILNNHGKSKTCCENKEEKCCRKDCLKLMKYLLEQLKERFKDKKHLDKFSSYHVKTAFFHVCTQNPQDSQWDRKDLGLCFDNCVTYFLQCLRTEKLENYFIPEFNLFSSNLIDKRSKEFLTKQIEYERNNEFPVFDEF

A further data set deals with hcGAS-FL (D191R) (Homo sapiens, UniProt Q8N884 1-522, D191R). The data set is described as follows: fluorescence polarization; D191R did not interfere with dsDNA binding; XQ2 inhibition markedly reduced; FP: 20 mM HEPES pH 7.5, 125 mM KCl, 10 mM MgCl2; 300 nM cGAS, 40 nM FAM-ISD; temperature not stated. MST conditions not given in the material. The following applies: protein: recombinant; tags: 6xHis-SUMO removed by ULP1; label: 5'-FAM on sense strand; blunt.
Chain of hcGAS-FL (D191R) (Q8N884 whole entry D191R): as the sequence (Q8N884 whole entry) above, with D191R counted along it

B1: 45-bp FAM-ISD (dsDNA)
DNA 1: TACAGATCTACTAGTGATCTATGACTGATCTGTACATGATCTACA
DNA 2: TGTAGATCATGTACAGATCAGTCATAGATCACTAGTAGATCTGTA
B1: the binding result with hcGAS-FL and in the data set with hcGAS-FL (D191R) was “binds” each time.
